Measurements taken from patent publication US20190015483A1 (CSL BEHRING RECOMBINANT FACILITY, published 2019).

T1: recombinant Factor VIII (CSL627, rVIII-SingleChain) (Homo sapiens (Human), UniProt P00451 20-2351)
T1 construct: also called FVIII
T1 sequence: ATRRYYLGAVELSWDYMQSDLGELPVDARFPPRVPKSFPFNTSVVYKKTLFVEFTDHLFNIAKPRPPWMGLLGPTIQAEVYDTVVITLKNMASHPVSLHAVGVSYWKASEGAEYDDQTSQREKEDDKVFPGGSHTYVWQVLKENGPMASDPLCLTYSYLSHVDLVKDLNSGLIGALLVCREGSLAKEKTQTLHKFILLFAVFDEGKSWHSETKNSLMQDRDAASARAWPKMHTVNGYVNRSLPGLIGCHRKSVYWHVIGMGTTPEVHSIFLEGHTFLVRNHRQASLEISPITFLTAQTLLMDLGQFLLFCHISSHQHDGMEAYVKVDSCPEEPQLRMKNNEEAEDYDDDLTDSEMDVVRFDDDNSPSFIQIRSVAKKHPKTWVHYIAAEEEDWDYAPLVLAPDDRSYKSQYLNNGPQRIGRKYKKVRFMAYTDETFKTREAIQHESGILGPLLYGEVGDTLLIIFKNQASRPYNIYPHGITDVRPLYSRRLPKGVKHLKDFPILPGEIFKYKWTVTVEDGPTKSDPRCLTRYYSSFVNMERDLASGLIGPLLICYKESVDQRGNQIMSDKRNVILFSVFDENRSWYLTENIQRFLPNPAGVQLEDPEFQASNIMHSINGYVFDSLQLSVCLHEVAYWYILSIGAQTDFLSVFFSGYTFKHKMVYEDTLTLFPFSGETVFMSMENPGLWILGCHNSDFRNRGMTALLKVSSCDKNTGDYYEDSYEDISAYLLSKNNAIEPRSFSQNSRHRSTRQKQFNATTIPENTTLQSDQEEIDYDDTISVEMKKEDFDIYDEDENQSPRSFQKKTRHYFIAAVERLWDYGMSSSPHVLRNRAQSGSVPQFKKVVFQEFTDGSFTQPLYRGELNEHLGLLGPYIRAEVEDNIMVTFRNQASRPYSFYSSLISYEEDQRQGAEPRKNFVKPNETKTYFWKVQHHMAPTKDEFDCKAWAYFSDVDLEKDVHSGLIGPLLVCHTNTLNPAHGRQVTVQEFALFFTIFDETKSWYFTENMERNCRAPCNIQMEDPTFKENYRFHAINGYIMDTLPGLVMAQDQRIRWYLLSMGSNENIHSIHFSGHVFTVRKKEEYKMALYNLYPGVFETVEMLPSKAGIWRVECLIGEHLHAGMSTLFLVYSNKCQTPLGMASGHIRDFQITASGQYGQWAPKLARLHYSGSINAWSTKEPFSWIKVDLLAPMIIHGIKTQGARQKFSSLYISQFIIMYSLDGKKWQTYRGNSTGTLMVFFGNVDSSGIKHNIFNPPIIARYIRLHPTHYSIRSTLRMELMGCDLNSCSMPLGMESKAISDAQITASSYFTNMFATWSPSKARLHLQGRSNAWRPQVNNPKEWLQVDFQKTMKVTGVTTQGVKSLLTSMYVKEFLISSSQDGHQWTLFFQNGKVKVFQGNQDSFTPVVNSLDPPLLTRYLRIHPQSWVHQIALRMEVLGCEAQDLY

T2: recombinant Factor VIII (CSL627, rVIII-SingleChain) (Homo sapiens (Human), UniProt P00451 20-2351)
T2 construct: also called FVIII
T2 sequence: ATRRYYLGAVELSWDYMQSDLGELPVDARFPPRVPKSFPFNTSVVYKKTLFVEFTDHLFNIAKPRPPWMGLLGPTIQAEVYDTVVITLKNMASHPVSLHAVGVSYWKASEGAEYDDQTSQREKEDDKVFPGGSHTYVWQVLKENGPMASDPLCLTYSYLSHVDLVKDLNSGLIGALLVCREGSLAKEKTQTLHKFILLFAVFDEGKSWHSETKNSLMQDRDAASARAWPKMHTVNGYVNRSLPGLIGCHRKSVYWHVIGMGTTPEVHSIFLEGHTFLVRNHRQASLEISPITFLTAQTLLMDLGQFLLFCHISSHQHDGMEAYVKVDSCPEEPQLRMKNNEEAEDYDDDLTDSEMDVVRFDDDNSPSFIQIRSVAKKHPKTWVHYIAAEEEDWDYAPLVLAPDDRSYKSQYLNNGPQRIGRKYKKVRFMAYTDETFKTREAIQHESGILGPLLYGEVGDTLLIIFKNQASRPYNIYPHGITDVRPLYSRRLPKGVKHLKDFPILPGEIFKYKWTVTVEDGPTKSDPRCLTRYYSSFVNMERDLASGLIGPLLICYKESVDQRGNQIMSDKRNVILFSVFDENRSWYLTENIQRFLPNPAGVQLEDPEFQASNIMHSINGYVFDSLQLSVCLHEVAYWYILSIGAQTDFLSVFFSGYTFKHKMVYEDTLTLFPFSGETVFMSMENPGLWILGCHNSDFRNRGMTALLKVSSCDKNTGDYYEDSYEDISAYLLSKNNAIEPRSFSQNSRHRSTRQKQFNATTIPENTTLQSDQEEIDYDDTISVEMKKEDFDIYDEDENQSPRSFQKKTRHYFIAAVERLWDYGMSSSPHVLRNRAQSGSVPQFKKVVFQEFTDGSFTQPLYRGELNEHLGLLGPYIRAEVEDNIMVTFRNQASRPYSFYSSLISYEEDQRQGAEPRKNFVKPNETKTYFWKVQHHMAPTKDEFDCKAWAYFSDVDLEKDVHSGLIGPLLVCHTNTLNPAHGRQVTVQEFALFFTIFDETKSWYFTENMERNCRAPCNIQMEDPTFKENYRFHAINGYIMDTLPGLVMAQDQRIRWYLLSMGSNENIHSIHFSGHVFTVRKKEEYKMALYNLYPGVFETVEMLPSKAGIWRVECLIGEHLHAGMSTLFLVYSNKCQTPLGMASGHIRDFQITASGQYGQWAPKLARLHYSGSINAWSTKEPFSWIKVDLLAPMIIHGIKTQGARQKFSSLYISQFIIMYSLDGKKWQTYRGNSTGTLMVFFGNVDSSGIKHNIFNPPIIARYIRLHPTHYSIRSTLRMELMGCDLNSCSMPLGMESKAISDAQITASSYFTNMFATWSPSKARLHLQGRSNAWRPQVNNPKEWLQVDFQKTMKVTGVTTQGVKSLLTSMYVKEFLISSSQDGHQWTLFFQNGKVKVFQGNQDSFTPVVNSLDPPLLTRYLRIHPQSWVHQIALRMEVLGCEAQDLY


target: T1, recombinant Factor VIII (CSL627, …); assay: SPR, anti-His capture
Procedure: Binding kinetics were investigated by surface plasmon resonance using a Biacore 4000 biosensor at 37° C. Each mutant was captured from cell culture medium to a density of 40-150 RU on a CM-5 sensor chip pre-immobilised with anti-His antibody (14,000 RU). In an initial screening study, FVIII was injected over the captured mutants for 5 minutes at 1 nM and dissociation monitored for 5 minutes.
All sensorgrams were double referenced by subtraction of signals from a reference spot (containing only immobilised anti His antibody) and from a blank injection. Binding kinetics were determined by fitting the double referenced sensorgrams to a 1:1 kinetic model.

Kd [nM]	koff [s⁻¹]	kon [M⁻¹ s⁻¹]	Binder
0.121	0.00123	1.02e+07	Hu-vWF[764-1270]-8His S764P-K773F (other) PLSCRPPMVFLVCPADNLRAEGLECTKTCQNYDLECMSMGCVSGCLCPPGMVRHENRCVALERCPCFHQGKEYAPGETVKIGCNTCVCRDRKWNCTDHVCDATCSTIGMAHYLTFDGLKYLFPGECQYVLVQDYCGSNPGTFRILVGNKGCSHPSVKCKKRVTILVEGGEIELFDGEVNVKRPMKDETHFEVVESGRYIILLLGKALSVVWDRHLSISVVLKQTYQEKVCGLCGNFDGIQNNDLTSSNLQVEEDPVDFGNSWKVSSQCADTRKVPLDSSPATCHNNIMKQTMVDSSCRILTSDVFQDCNKLVDPEPYLDVCIYDTCSCESIGDCACFCDTIAAYAHVCAQHGKVVTWRTATLCPQSCEERNLRENGYECEWRYNSCAPACQVTCQHPEPLACPVQCVEGCHAHCPPGKILDELLQTCVDPEDCPVCEVAGRRFASGKKVTLNPSDPEHCQICHCDVVNLTCEACQEPGGLVVPPTDAPVSPTTLYVEDISEPPLHDFHHHHHHHH
0.0386	0.000636	1.65e+07	Hu-vWF[764-1270]-8His S764P-K773H (other) PLSCRPPMVHLVCPADNLRAEGLECTKTCQNYDLECMSMGCVSGCLCPPGMVRHENRCVALERCPCFHQGKEYAPGETVKIGCNTCVCRDRKWNCTDHVCDATCSTIGMAHYLTFDGLKYLFPGECQYVLVQDYCGSNPGTFRILVGNKGCSHPSVKCKKRVTILVEGGEIELFDGEVNVKRPMKDETHFEVVESGRYIILLLGKALSVVWDRHLSISVVLKQTYQEKVCGLCGNFDGIQNNDLTSSNLQVEEDPVDFGNSWKVSSQCADTRKVPLDSSPATCHNNIMKQTMVDSSCRILTSDVFQDCNKLVDPEPYLDVCIYDTCSCESIGDCACFCDTIAAYAHVCAQHGKVVTWRTATLCPQSCEERNLRENGYECEWRYNSCAPACQVTCQHPEPLACPVQCVEGCHAHCPPGKILDELLQTCVDPEDCPVCEVAGRRFASGKKVTLNPSDPEHCQICHCDVVNLTCEACQEPGGLVVPPTDAPVSPTTLYVEDISEPPLHDFHHHHHHHH
0.0436	0.000762	1.75e+07	Hu-vWF[764-1270]-8His S764P-K773G (other) PLSCRPPMVGLVCPADNLRAEGLECTKTCQNYDLECMSMGCVSGCLCPPGMVRHENRCVALERCPCFHQGKEYAPGETVKIGCNTCVCRDRKWNCTDHVCDATCSTIGMAHYLTFDGLKYLFPGECQYVLVQDYCGSNPGTFRILVGNKGCSHPSVKCKKRVTILVEGGEIELFDGEVNVKRPMKDETHFEVVESGRYIILLLGKALSVVWDRHLSISVVLKQTYQEKVCGLCGNFDGIQNNDLTSSNLQVEEDPVDFGNSWKVSSQCADTRKVPLDSSPATCHNNIMKQTMVDSSCRILTSDVFQDCNKLVDPEPYLDVCIYDTCSCESIGDCACFCDTIAAYAHVCAQHGKVVTWRTATLCPQSCEERNLRENGYECEWRYNSCAPACQVTCQHPEPLACPVQCVEGCHAHCPPGKILDELLQTCVDPEDCPVCEVAGRRFASGKKVTLNPSDPEHCQICHCDVVNLTCEACQEPGGLVVPPTDAPVSPTTLYVEDISEPPLHDFHHHHHHHH

target: T2, recombinant Factor VIII (CSL627, …); assay: SPR, anti-His capture, FVIII injected, 37 C
Summary of the method: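 First, mutants in culture medium are loaded to 40-150 RU on anti-His-coated chip; next, 1 nM FVIII is passed over for 5 min and washout followed for 5 min; finally, 1:1 fitting of double-referenced data gives rate constants.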

Kd [nM]	koff [s⁻¹]	kon [M⁻¹ s⁻¹]	Binder
0.277	0.00187	6.74e+06	Hu-vWF[764-1270]-8His S766Y-R768Y (other) SLYCYPPMVKLVCPADNLRAEGLECTKTCQNYDLECMSMGCVSGCLCPPGMVRHENRCVALERCPCFHQGKEYAPGETVKIGCNTCVCRDRKWNCTDHVCDATCSTIGMAHYLTFDGLKYLFPGECQYVLVQDYCGSNPGTFRILVGNKGCSHPSVKCKKRVTILVEGGEIELFDGEVNVKRPMKDETHFEVVESGRYIILLLGKALSVVWDRHLSISVVLKQTYQEKVCGLCGNFDGIQNNDLTSSNLQVEEDPVDFGNSWKVSSQCADTRKVPLDSSPATCHNNIMKQTMVDSSCRILTSDVFQDCNKLVDPEPYLDVCIYDTCSCESIGDCACFCDTIAAYAHVCAQHGKVVTWRTATLCPQSCEERNLRENGYECEWRYNSCAPACQVTCQHPEPLACPVQCVEGCHAHCPPGKILDELLQTCVDPEDCPVCEVAGRRFASGKKVTLNPSDPEHCQICHCDVVNLTCEACQEPGGLVVPPTDAPVSPTTLYVEDISEPPLHDFHHHHHHHH
